B1: Car10: carbonic anhydrase 10, rodent ortholog, overexpressed (V5-tagged) protein (protein)
chain: MEIVWEVLFLLQANFIVCISAQQNSPKIHEGWWAYKEVVQGSFVPVPSFWGLVNSAWNLCSVGKRQSPVNIETSHMIFDPFLTPLRINTGGRKVSGTMYNTGRHVSLRLDKEHLVNISGGPMTYSHRLEEIRLHFGSEDSQGSEHLLNGQAFSGEVQLIHYNHELYTNVTEAAKSPNGLVVVSIFIKVSDSSNPFLNRMLNRDTITRITYKNDAYLLQGLNIEELYPETSSFITYDGSMTIPPCYETASWIIMNKPVYITRMQMHSLRLLSQNQPSQIFLSMSDNFRPVQPLNNRCIRTNINFSLQGKDCPNNRAQKLQYRVNEWLLK
modifications: left off: small tags and cut ends
notes: carbonic anhydrase 10, rodent ortholog, overexpressed (V5-tagged) protein
B2: CA10: human carbonic anhydrase 10, overexpressed (V5-tagged) protein; SEQ ID NO: 9 (protein)
chain: B1 chain
modifications: V5 tag

Experiments:
ITPR1 = ITPR1 (Homo sapiens, UniProt Q14643); test: co-immunoprecipitation / western blot with ITPR1 and pITPR1; format: binding; set-up: before and after forskolin stimulation of HEK293 cells was conducted; endogenous in cells; host or cells: HEK293 (ATCC CRL-1573); details: HEK293 cells, before and after forskolin stimulation
Description: Immunoprecipitation: Fifty μl magnetic beads (Invitrogen) were incubated with 1 μg pITPR1 antibody for 45 minutes at 4° C. The supernatant was discarded and the beads were washed with binding buffer. Sample proteins of 200-400 μg were added and incubated with the beads for 4 hrs at 4° C. Then the protein complex was washed 3 times with washing buffer, and then eluted with SDS sample buffer. Samples were then heated at 70° C. for 10 min and then subjected to western blot analysis for Car10. The method described herein also is suitable for use in connection with Car8, CA8, CA8 fragment (CA8-204), CA10, Car11 and CA11.
Overexpression of V5-Car10 and V5-CA10 inhibits ATP-induced free calcium release in vitro: ITPR1 contains functionally distinct domains, including the ‘modulatory’ domain responding to intracellular modulators such as calcium, calmodulin, ATP, and carbonic anhydrase-8 (Car8). ATP increases ITPR1-dependent calcium release by increasing the open probability of the channel in the presence of activating concentrations of IP3 and calcium. It is believed that Car8-mediated inhibition of ITPR1 activation and ATP-mediated calcium release requires binding to this modulatory domain. Therefore, the ability of CA8 fragments (e.g., CA8-204), Car10 and CA10 to bind to ITPR1 and pITPR1 was examined. […]

[1] = tested on: intracellular calcium release in NBL cells; test: ATP-stimulated calcium release in NBL cells (Fura2 imaging); format: cell-based, human; details: 1 μM ATP, vs empty vector
Description: Pharmacodynamics—Bioassay of Calcium Release: Fifteen mm glass coverslips (cat #72228 Electron Microscopy Sciences, Hatfield, PA) were coated with poly-D-Lysine (Sigma) followed by Laminin and 1×10^5 cells were seeded on each coverslip. Twenty-four hrs later, cells were transfected with AAV2-ITR, AAV2-V5-Car10, or AAV2-V5-CA10 vectors as previously described. In embodiments wherein AAV2 is not employed, other expression vectors (including viral vectors) are used. Fura-2AM (cat #F1221 ThermoFisher scientific, Waltham, MA) was dissolved in DMSO (50 μg in 50 μl) and 1% pluronic acid-127 (cat #P2443 Sigma, St Louis, MO) as the stock solution. Forty eight hrs after seeding, cells were loaded with 2 μM Fura-2AM dye for 45 min at room temperature in the dark in a standard Ca+2 buffer solution containing: 125 mM NaCl, 2 mM MgCl, 4.5 mM KCl, 10 glucose, 20 mM HEPES, 2 mM CaCl2, pH 7.4.25. Following dye loading, coverslips were washed with Ca^+2 buffer solution. […] Regions of interest over the field of view were selected and the mean pixels intensity at each frame was measured. Data was plotted as ratio fluorescence intensity versus time and subsequently converted to a relative scale. […]

ITPR1, sequence (Q14643 whole entry): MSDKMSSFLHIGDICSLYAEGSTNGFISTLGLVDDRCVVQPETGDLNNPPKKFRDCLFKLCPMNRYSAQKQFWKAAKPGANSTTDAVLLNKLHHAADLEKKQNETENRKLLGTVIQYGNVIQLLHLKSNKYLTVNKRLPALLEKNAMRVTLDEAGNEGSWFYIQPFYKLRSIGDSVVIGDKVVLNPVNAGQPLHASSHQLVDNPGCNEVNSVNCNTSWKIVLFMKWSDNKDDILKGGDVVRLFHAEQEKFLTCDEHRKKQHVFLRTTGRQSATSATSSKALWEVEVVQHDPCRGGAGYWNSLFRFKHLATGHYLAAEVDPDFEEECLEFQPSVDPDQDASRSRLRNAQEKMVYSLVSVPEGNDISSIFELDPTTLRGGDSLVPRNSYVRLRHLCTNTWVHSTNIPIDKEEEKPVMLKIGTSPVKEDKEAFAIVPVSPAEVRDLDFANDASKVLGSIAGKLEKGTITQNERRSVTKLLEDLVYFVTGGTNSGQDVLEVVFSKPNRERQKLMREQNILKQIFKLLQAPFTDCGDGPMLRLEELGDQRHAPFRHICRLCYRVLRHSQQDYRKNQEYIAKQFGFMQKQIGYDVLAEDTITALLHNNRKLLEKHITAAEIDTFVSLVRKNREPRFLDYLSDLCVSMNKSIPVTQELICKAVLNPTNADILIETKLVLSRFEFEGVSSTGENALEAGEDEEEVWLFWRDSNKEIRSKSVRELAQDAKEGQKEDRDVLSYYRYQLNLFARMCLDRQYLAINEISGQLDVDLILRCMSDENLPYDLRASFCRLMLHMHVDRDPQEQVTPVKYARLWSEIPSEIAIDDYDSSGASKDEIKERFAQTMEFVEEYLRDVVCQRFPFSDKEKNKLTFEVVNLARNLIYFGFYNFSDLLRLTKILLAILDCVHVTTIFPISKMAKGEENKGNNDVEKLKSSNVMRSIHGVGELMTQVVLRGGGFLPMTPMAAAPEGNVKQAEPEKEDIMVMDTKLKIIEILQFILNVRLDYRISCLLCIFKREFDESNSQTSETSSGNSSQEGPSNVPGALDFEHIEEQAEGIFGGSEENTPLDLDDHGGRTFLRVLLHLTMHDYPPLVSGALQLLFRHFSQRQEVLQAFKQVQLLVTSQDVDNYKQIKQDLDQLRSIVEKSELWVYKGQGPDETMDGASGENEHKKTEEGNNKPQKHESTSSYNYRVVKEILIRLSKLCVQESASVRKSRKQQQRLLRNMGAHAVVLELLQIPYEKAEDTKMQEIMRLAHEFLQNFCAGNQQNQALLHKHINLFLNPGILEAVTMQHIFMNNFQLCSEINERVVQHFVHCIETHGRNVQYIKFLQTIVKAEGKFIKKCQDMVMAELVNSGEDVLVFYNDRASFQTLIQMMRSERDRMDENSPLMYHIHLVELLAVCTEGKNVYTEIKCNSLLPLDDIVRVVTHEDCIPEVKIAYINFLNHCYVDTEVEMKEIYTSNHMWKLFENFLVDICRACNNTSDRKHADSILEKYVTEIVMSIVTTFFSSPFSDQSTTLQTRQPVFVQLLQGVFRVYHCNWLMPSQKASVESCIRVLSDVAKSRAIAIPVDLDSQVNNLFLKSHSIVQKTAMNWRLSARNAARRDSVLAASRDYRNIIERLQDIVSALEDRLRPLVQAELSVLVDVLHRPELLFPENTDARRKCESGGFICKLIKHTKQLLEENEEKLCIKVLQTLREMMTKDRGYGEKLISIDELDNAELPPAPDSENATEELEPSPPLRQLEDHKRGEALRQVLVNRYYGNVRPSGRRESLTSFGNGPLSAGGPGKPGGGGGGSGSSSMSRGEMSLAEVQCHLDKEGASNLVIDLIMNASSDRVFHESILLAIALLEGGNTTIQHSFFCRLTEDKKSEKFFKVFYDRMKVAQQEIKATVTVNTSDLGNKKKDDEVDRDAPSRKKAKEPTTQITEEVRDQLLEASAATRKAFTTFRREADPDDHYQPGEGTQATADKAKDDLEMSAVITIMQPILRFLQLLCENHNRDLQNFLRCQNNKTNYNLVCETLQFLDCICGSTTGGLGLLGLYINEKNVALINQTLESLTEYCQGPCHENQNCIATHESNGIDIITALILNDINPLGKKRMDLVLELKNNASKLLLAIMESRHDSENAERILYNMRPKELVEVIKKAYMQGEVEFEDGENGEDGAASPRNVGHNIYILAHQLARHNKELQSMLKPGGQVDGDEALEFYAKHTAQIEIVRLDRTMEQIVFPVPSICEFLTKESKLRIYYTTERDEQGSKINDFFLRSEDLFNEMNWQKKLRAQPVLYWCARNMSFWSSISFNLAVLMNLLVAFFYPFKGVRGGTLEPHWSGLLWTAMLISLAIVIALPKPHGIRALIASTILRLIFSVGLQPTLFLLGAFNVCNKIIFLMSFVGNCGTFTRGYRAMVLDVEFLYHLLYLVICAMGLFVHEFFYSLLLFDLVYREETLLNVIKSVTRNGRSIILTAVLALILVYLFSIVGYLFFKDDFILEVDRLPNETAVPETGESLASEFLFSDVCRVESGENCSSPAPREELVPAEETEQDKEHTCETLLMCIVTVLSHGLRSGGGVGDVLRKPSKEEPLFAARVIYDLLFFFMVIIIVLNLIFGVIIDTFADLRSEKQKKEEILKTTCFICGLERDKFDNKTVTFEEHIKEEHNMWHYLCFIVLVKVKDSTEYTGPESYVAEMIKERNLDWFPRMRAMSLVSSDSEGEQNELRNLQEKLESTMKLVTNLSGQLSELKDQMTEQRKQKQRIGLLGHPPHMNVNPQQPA

Molecule | binding to ITPR1 (co-immunoprecipitation) (ITPR1) | ATP-stimulated calcium release [1]
B1 | do not bind to ITPR1 | 
B2 | do not bind to ITPR1 | inhibited
